Assay results from patent US8221990B2, “Screening GPR12 receptor for substances having Nesfatin-1-like action, or which regulate Nesfatin-1 action” (Teijin Pharma Limited, priority 2007, dated 2012).

Columns and labels:
[1] = target: T1, GPR12 (Mus musculus, UniProt P35412); assay: Expression of a CRE-reporter gene (pCRE-Luc luciferase) in NB41A3 cells expressing GPR12 endogenously; type: cell-based; conditions: NB41A3 cells transfected with pCRE-Luc, 10^-10 M, 16 hours
T1 construct: in which GPR12 was endogenously expressed; endogenous in cells; host or cells: NB41A3 cells (ATCC-CCL147), mouse brain neuroblastoma
T1 sequence (P35412 1-334): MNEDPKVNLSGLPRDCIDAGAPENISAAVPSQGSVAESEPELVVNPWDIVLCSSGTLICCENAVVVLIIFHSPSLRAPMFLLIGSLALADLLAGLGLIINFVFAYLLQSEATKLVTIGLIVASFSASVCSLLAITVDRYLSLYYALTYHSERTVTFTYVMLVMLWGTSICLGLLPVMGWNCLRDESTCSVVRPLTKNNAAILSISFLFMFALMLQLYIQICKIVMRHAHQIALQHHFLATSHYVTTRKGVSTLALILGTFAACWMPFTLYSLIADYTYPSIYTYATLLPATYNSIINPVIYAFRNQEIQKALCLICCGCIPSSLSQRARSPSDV
Method: NB41A3 cells (ATCC-CCL147), a cell strain derived from mouse brain neuroblastoma, in which GPR12 was endogenously expressed were used. The confluent NB41A3 cells were recovered in a 10-cm dish, plated onto 10 cm-dishes after dividing the cell colony in four quarters, and cultured for one day in Ham's F12K medium. The cells were transected with 5 μg of the reporter plasmid pCRE-Luc (Stratagene Corporation, Catalog No. 219074) in which TATA-BOX and luciferase were incorporated into downstream of CRE by a calcium phosphate method. The cells were washed with Ham's F12K medium 16 hours after the transfection. Ham's F12K medium containing no test substance (Vehicle), Ham's F12K medium containing 10^−10 M of Nesfatin-1 M30 (Mid-Segment: SEQ ID NO: 11), Ham's F12K medium containing 10^−10 M of a modified peptide M30_Ag-A (SEQ ID NO: 50) (M30_Ag-A), and Ham's F12K medium containing 10^−10 M of a modified peptide M30_MSH-A (SEQ ID NO: 51) […] were added to the cells, and the resultant mediums were cultured under the conditions of 37° C. and 5% CO2 for 16 hours. After the culturing, the cells were washed twice with phosphate-buffered saline (PBS), lysed with 4 mL of lysis buffer (an aqueous solution containing 25 mM of glycylglicine (pH 7.8), 15 mM of magnesium sulfate, 4 mM of glycol ether diaminetetraacetic acid (EGTA), 1 mM of dithiothreitol (DTT), and 1% (volume/volume) of Triton X-100). […] After adding 200 μL of 0.2 mM of d-luciferin to the diluted cell lysate, the luminescence was measured for 10 seconds by a luminometer, and the amount of luminescence (units) was determined. Further, the amount of protein in each cell lysate was measured by BCA™ Protein Assay Kit-Reducing Agent Compatible (Pearce, Catalog No. 23250), and the value obtained by dividing the amount of luminescence (units) by the amount of protein (μg) in a sample was determined as a luciferase activity. […] The cells were cultured for 16 hours, and then the level of luciferase activity was also determined.

[2] = target: T2, mGPR12 (Mus musculus, UniProt P35412); assay: CREB phosphorylation in CHO-K1-cell stable expression system (western blotting); type: cell-based; design: expressed in transfected cells; conditions: CHO-K1-mGPR12 cells
T2 sequence (P35412 1-334): T1 sequence (P35412 1-334)
Method: Using Nesfatin-1M30 (Mid-segment) as a test substance, the method for bringing the test substance into contact with cells was conducted as follows. The confluent CHO-K1 cells and CHO-K1-mGPR12 cells were recovered in 10-cm dishes, plated onto 10-cm dishes by dividing the cell colony in four quarters, and cultured for 2 days in Ham's F12 medium (as for CHO-K1-mGPR12, 700 μg/mL of Geneticin® was contained). After removing the medium, the resultant cultured cells were washed once with the medium containing no Geneticin®, and then Ham's F12 medium containing 10^−9 M of Nesfatin-1M30 (Mid-segment) peptide was added to the cells. […] SDS-gel electrophoresis was conducted by using the protein extracts from each cells; and then the protein was transcribed into Amersham hybond-P[…] (GE Healthcare); and using anti-phosphorylation CREB antibody (Cell Signaling Technology, Inc., Catalog No. #9191) for detecting the phosphorylated CREB, the phosphorylated CREB was detected with an ECL plus western blotting detection reagents (GE Healthcare) kit, in accordance with the attached protocol. […]
Further, the concentration dependence was examined by using Nesfatin-1M30 (Mid-segment: SEQ ID NO: 11). […] Subsequently, cellular proteins were extracted, and the phosphorylated CREB (p-CREB) was detected by a western blotting method.

Substance: Nesfatin-1M30: mid-segment of Nesfatin-1, human-derived Nesfatin-1M30, SEQ ID NO: 11 (PDTGLYYDEYLKQVIDVLETDKHFREKLQK; listed as Homo sapiens)
- luciferase activity compared with Vehicle [1]: enhanced
- phosphorylation of CREB (p-CREB band), time course ([2]; 10^-9 M, 15 minutes or later after contact): phosphorylation of CREB was induced
- phosphorylation of CREB, concentration dependence ([2]; 10^-12 M to 10^-9 M, 15 minutes): enhanced depending on the M30 peptide concentration
